Measurements published in patent publication US20090036368A1, “Therapeutic Combination” (HAMLET PHARMA AB, priority 2005, published 2009).

Assays:
Jurkat cells [1] = assay: subG1 population / DNA fragmentation by flow cytometry after PI staining; type: cell-based; settings: for DNA fragmentation (sub G0/G1), substance alone: TSA 100 ng/ml or SAHA 2.5 μM
Protocol: Cell Cycle Analysis by cytometry—Cells were harvested, washed with PBS and then fixed in suspension in 75% cold ethanol at 4° C. for 2 hours at least. The samples were then centrifuged, washed with PBS, and treated with 0.25% triton X-100 for 10 minutes at room temperature. The cells were washed again, resuspended in 2.5 μg/ml of PI and 250 μg/ml Rnase A in PBS, and incubated at 4° C. overnight prior to measurement. Cellular fluorescence was measured using the Facscalibur flow cytometry (Becton Dickinson, San Jose, Calif.). The simple-cell populations were determinated on the basis of their fluorescence-intensity values FL2-A and FL2-W.
The effects of HAMLET on DNA fragmentation were compared between untreated cells and those pre-treated with TSA to increase acetylation. Sub G0/G1 DNA fragmentation was quantified by flow cytometry using the methodology as described in Example 1.
(§1) Cells in medium were used as controls.

[2] = viability by trypan blue exclusion (Vi-Cell XR); settings: human, Jurkat cells
Protocol: (§2) Jurkat cells were first pretreated with or without TSA 100 ng/ml during 3 or 18H and then treated by HAMLET during 3H. Viability was assessed by trypan blue exclusion using the Vi-Cell XR apparatus.
(§3) To examine if HDAC inhibitors might influence the effects of HAMLET on the viability of tumour cells, Jurkat cells were pretreated with HDAC inhibitors TSA 3 hours or 18 h and then exposed to HAMLET (FIG. 5). The cellular response to the combined treatment was compared to the response to TSA alone (3 h or 18 h) and to HAMLET (3 h). Cells in medium were used as controls. The cellular response was quantified by flow cytometry and the subG1 population was used as a measure of chromatin fragmentation and cell death (FIGS. 5 and 6A). In parallel, cell viability was assessed by ATP levels (FIG. 6B) and trypan blue exclusion (FIG. 6C).

[3] = system: HeLa cells expressing GFP-tagged Histone H4; assay: acetyl histone H4 and nuclear morphology by confocal microscopy; type: cell-based; settings: TSA 100 ng/ml; vs control cells
Protocol: Acetyl histone H4 by confocal microscopy—Hela Cells were grown in Lab-Tek Chamber slides. Cells were washed twice in PBS, and then fixed 10 minutes in PBS formaldehyde 4%. The samples were then centrifuged, washed with PBS, and treated with 0.1% triton X-100 for 2 minutes at room temperature. After washes, cells were incubated for at least 30 min in swine serum 1% (DAKO, Solna, Sweden) in PBS. Then cells were incubated for 3 hours at room temperature in the presence of rabbit polyclonal antibody to human acetyl Histone H4 (Upstate), diluted 1/500 containing 1% BSA. Cells were then washed and incubated with an Alexa633-conjugated goat anti-rabbit antibody (Invitrogen) diluted 1/200 in PBS containing 1% BSA for 2 h. The cells were washed 3×5 min. in PBS prior to evaluation in an LSM 510 META confocal microscope (Carl Zeiss, Germany) with a 63× objective. The frequency of each chromatin patterns is shown in fold of control cells staining after counting a minimum of 30 cells in each experiment.
The effect of HAMLET and TSA on the acetylation of Histone H4 was further examined by confocal microscopy of adherent HeLa cells expressing GFP-tagged Histone H4. […] The acetylation level of histone H4 in the control cells was very weak (FIG. 9A).

[4] = system: acetyl histone H4 in Jurkat cells; assay: acetyl histone H4 by flow cytometry; type: cell-based; settings: for histone acetylation (Example 5): TSA 3 hours or 18 h, HAMLET 3 h, total population
Protocol: Acetyl histone H4 and Cell Cycle Analysis by cytometry—Cells were harvested, washed with PBS and then fixed in suspension in 75% cold ethanol at 4° C. for 2 hours at least. The samples were then centrifuged, washed with PBS, and treated with 0.25% triton X-100 for 10 minutes at room temperature. After addition of 3 ml of PBS and centrifugation, the cells were incubated for at least 30 min in swine serum 1% (DAKO, Solna, Sweden) in PBS. After addition of 3 ml of PBS and centrifugation, the cells were incubated for 3 hours at room temperature in the presence of rabbit polyclonal anti-body to human acetyl Histone H4 (Upstate), diluted 1/500 containing 1% BSA. Cells were then washed and incubated with a FITC-conjugated swine anti-rabbit antibody (DAKO, Solna, Sweden) diluted 1/20 in PBS containing 1% BSA for 2 h. The cells were washed again, resuspended in 2.5 μg/ml of PI and 250 μg/ml Rnase A in PBS, and incubated at 4° C. overnight prior to measurement. The control was prepared identically as described above, except the presence of the histone antibody. Cellular fluorescence was measured using the Facscalibur flow cytometry (Becton Dickinson, San Jose, Calif.). The simple-cell populations were determined on the basis of their fluorescence-intensity values FL2-A and FL2-W. Then red and green emissions from each cell were separated and quantified using the standard optics of the cytometer.
The level of chromatin acetylation in Jurkat cells was quantified by flow cytometry, using specific antibodies to acetylated histone H4 (FIG. 1). To increase acetylation, the cells were treated with the HDAC inhibitor TSA (FIG. 1C, FIG. 1E line 3).
The inhibition of HDAC causes an accumulation of acetylated histones. The level of acetyl histone H4 in Jurkat cells was quantified by flow cytometry after staining with specific antibodies. The cells were counterstained with propidium iodide to visualize the change in chromatin levels. Results are presented as density plot diagrams representing the DNA content on the Y-axis between four populations of cells (Sub1, G1, S, and G2), and the degree of acetylation of Histone H4 on the X-axis.

A459 cells = assay: subG1 DNA fragmentation by flow cytometry in A459 cells; type: cell-based; settings: TSA 100 ng/ml overnight, then HAMLET 30 μM one hour; data not shown
Protocol: In addition, non confluent A459 cells were treated with or without TSA 100 ng/ml overnight. Then HAMLET was added for one hour at 30 μM. As before, DNA fragmentation was followed both by flow cytometry. Following PI staining (cf. Materials and methods), subG1 populations were quantified and presented as percent of the total population.

Jurkat cells [5] = assay: viability by trypan blue exclusion (Vi-Cell XR); settings: HAMLET 3 h, in comparison with control
Protocol: as §2, §3

Jurkat cells [6] = assay: cell viability by ATP levels; type: cell-based; settings: 3 h exposure, vs control cells
Excerpt: ATP monitoring reagent (AMR) was purchased from Cambrex (Wokingham, U.K.) in the form of a ViaLight™ HS kit and was reconstituted according to the manufacturers guidelines.
as §1

[7] = system: tailless histones and DNA; assay: nucleosome assembly from tailless histones and DNA; type: biochemical, Drosophila melanogaster; settings: radiolabelled 146 bp DNA fragments, gel
Protocol: FIG. 4. Effects of HAMLET on a mixture of tailless histones and DNA. HAMLET was added to a mixture of radiolabelled 146 bp DNA fragments and tailless histones. In the absence of HAMLET, no nucleosomes are formed (lane 1). […] Nucleosome assembly on the 146 bp fragment results in one single nucleosome species, designated N. At higher concentrations of HAMLET, more nucleosomes were formed and HAMLET associated with them to form a second band in the gel. HAMLET also dissolved the unspecific histone-DNA aggregated seen in the wells.
Histones—Native, folded histones were obtained from duck erythrocyte nuclei. Native or tailless Drosophila melanogaster histones were expressed in E. coli, purified and assembled into octamers. The fold and functional integrity of the histones were confirmed by nucleosome assembly on DNA.
Chromatin assembly—To generate nucleosomes, histone octamers (recombinant or purified from cells) were assembled on linear DNA according to the “salt jump” method (Stein, 1979). ^32P-labeled 256 bp fragments and carrier DNA (supercoiled plasmid DNA, final DNA concentration 200 μg/ml) were mixed with histones (histone:DNA weight ratio 0.4-0.6) in 2 M NaCl, 10 mM Tris-HCl (pH 7.5). The mixture was incubated for 10 min at 37° C., diluted to 0.5 M NaCl, incubated at the same temperature for 30 min, and dialyzed at 4° C. against 10 mM Tris-HCl (pH 7.5) and 1 mM EDTA for 2 h. […]

[8] = biological activity of α-lactalbumin mutants in apo-conformation; settings: mutant proteins stable in apo-conformation at physiologic temperatures, without cofactor
[9] = bovine α-lactalbumin mutants, Permyakov et al. 2001; cited from earlier work

Row | Molecule | DNA fragmentation (sub G0/G1), substance alone (Jurkat cells [1]; HAMLET 1 hour) | acetylation of Histone H4 [3] | intensity of the GFP (histone H4) staining [3] | size of the nuclei [3] | histone acetylation (Example 5) [4] | biological activity [8] | calcium binding [9] | other results
1 | O=C(CCCCCCC(=O)Nc1ccccc1)NO [SAHA, suberoylanilide hydroxamic acid] | did not trigger DNA fragmentation |  |  |  |  |  |  | 
2 | CC(/C=C/C(=O)NO)=C\[C@@H](C)C(=O)c1ccc(N(C)C)cc1 [TSA, Trichostatin A] | did not stimulate DNA fragmentation | increase in the staining of the acetylation of histone H4 | slight increase | slight increase in the size of the nuclei | time dependent increase in histone acetylation |  |  | cytotoxicity at 18 h, 100 ng/ml [2]: 24.9%; subG1 population (Jurkat cells [1]; TSA alone, 18 h): 26.13%; HAMLET-induced DNA fragmentation after HDAC inhibitor pre-treatment (Jurkat cells [1]; pre-treated with TSA 100 ng/ml or SAHA 2.5 μM for 2 hours, HAMLET 1 hour): enhanced HAMLET-induced DNA fragmentation; time of maximal effect on acetylation ([4]; TSA treatment): two hours; acetylation of histone H4, increase vs control ([4]; increased concentration of TSA without HAMLET, intact cells (subG1 removed)): 2 fold; cell death (subG1) (A459 cells): significantly increased cell death
3 | HAMLET (protein, UniProt P00709 20-142, looked up, complex with oleic acid) Alpha-lactalbumin: KQFTKCELSQLLKDIDGYGGIALPELICTMFHTSGYDTQAIVENNESTEYGLFQISNKLWCKSSQVPQSRNICDISCDKFLDDDITDDIMCAKKILDIKGIDYWLAHKALCTEKLEQWLCEKL | induce DNA fragmentation | increase in the acetylation of Histone H4 | increase of the intensity of the GFP staining | marked decrease in the size of the nuclei | did not change the degree of acetylation |  |  | loss of viability by trypan blue exclusion (Jurkat cells [5]): 19.7%; subG1 population (Jurkat cells [1]; HAMLET alone, 3 h): 14.58%; histone H4 acetylation (Example 1) ([4]; low concentrations of HAMLET 1H, TSA 100 ng/ml 2H, vs medium control): decrease in histone H4 acetylation; decrease in ATP levels (Jurkat cells [6]; HAMLET 0.1 mg/ml): 9.2%; decrease in ATP levels (Jurkat cells [6]; HAMLET 0.2 mg/ml): 41.17%; decrease in ATP levels (Jurkat cells [6]; HAMLET 0.3 mg/ml): 85.71%; effect on mixture of tailless histones and 146 bp DNA [7]: assembly of nucleosomes
4 | D87A: bovine α-lactalbumin mutant, aspartic acid at position 87 replaced by alanine (protein, UniProt P00711 20-142, looked up, variant D87A) Alpha-lactalbumin: EQLTKCEVFRELKDLKGYGGVSLPEWVCTTFHTSGYDTQAIVQNNDSTEYGLFQINNKIWCKDDQNPHSSNICNISCDKFLDDDLTADIMCVKKILDKVGINYWLAHKALCSEKLDQWLCEKL |  |  |  |  |  | biologically inactive | totally abolish calcium binding | 
5 | D87N: bovine α-lactalbumin mutant, aspartic acid at position 87 replaced by asparagine (protein, UniProt P00711 20-142, looked up, variant D87N) Alpha-lactalbumin: EQLTKCEVFRELKDLKGYGGVSLPEWVCTTFHTSGYDTQAIVQNNDSTEYGLFQINNKIWCKDDQNPHSSNICNISCDKFLDDDLTNDIMCVKKILDKVGINYWLAHKALCSEKLDQWLCEKL |  |  |  |  |  | biologically inactive | still bound calcium but with lower affinity | 
